The source of these data is patent US20230192865A1.

Positions count from the first letter of the chain named.

Assay [1] deals with T1, Galectin-10 protein with His tag (expressed and purified with pk277) (Homo sapiens (Human)) (UniProt Q05315).
T1 sequence: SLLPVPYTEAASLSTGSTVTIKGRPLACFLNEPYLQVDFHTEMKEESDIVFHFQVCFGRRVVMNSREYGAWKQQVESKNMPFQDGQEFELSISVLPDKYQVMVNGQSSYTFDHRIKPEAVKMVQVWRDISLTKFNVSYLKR
As to the kind of experiment: ELISA on coated His-tagged Galectin-10, anti-GST detection.

Assay [2] has as its target T1, Galectin-10 protein with His tag (expressed and purified with pk277) (Homo sapiens (Human)). As to the kind of experiment: ELISA, His-tagged Galectin-10 coated at 125 ng/mL, 254# diluted 1:200, anti-GST mouse antibody and HRP goat anti-mouse, average. Background: In an ELISA, binding on a coated surface is turned into a signal by an enzyme label.
The target is the same in assay [3]. As to the kind of experiment: ELISA, His-tagged Galectin-10 coated at 500 ng/mL, 254# diluted 1:200, anti-GST mouse antibody and HRP goat anti-mouse, average.
Assay [4] shares this target. As to the kind of experiment: ELISA, His-tagged Galectin-10 coated at 125 ng/mL, 254# diluted 1:200, anti-GST mouse antibody and HRP goat anti-mouse, repeat 1.
Assay [5] has the same target. In words: ELISA, His-tagged Galectin-10 coated at 125 ng/mL, 254# diluted 1:200, anti-GST mouse antibody and HRP goat anti-mouse, repeat 2.
The target is the same in assay [6]. In words: ELISA, His-tagged Galectin-10 coated at 125 ng/mL, 254# diluted 1:200, anti-GST mouse antibody and HRP goat anti-mouse, repeat 3.
The target is the same in assay [7]. In words: ELISA, His-tagged Galectin-10 coated at 2500 ng/mL, 254# diluted 1:200, anti-GST mouse antibody and HRP goat anti-mouse, average.
Assay [8] shares this target. As to the kind of experiment: ELISA, His-tagged Galectin-10 coated at 500 ng/mL, 254# diluted 1:200, anti-GST mouse antibody and HRP goat anti-mouse, repeat 1.
Assay [9] has the same target. In words: ELISA, His-tagged Galectin-10 coated at 500 ng/mL, 254# diluted 1:200, anti-GST mouse antibody and HRP goat anti-mouse, repeat 2.
The target is the same in assay [10]. In words: ELISA, His-tagged Galectin-10 coated at 500 ng/mL, 254# diluted 1:200, anti-GST mouse antibody and HRP goat anti-mouse, repeat 3.
Assay [11] has the same target. In words: ELISA, His-tagged Galectin-10 coated at 2500 ng/mL, 254# diluted 1:200, anti-GST mouse antibody and HRP goat anti-mouse, repeat 1.
For assay [12] the target is unchanged. As to the kind of experiment: ELISA, His-tagged Galectin-10 coated at 2500 ng/mL, 254# diluted 1:200, anti-GST mouse antibody and HRP goat anti-mouse, repeat 2.
Assay [13] has the same target. As to the kind of experiment: ELISA, His-tagged Galectin-10 coated at 2500 ng/mL, 254# diluted 1:200, anti-GST mouse antibody and HRP goat anti-mouse, repeat 3.
The target is the same in assay [14]. In words: ELISA, His-tagged Galectin-10 coated at 125 ng/mL, 225# diluted 1:200, anti-GST mouse antibody and HRP goat anti-mouse, average.
The target is the same in assay [15]. As to the kind of experiment: ELISA, His-tagged Galectin-10 coated at 500 ng/mL, 225# diluted 1:200, anti-GST mouse antibody and HRP goat anti-mouse, average.
For assay [16] the target is unchanged. As to the kind of experiment: ELISA, His-tagged Galectin-10 coated at 125 ng/mL, 225# diluted 1:200, anti-GST mouse antibody and HRP goat anti-mouse, repeat 1.
The target is the same in assay [17]. In words: ELISA, His-tagged Galectin-10 coated at 125 ng/mL, 225# diluted 1:200, anti-GST mouse antibody and HRP goat anti-mouse, repeat 2.
Assay [18] has the same target. In words: ELISA, His-tagged Galectin-10 coated at 125 ng/mL, 225# diluted 1:200, anti-GST mouse antibody and HRP goat anti-mouse, repeat 3.
Assay [19] shares this target. As to the kind of experiment: ELISA, His-tagged Galectin-10 coated at 2500 ng/mL, 225# diluted 1:200, anti-GST mouse antibody and HRP goat anti-mouse, average.
For assay [20] the target is unchanged. As to the kind of experiment: ELISA, His-tagged Galectin-10 coated at 500 ng/mL, 225# diluted 1:200, anti-GST mouse antibody and HRP goat anti-mouse, repeat 1.
Assay [21] shares this target. As to the kind of experiment: ELISA, His-tagged Galectin-10 coated at 500 ng/mL, 225# diluted 1:200, anti-GST mouse antibody and HRP goat anti-mouse, repeat 2.
For assay [22] the target is unchanged. As to the kind of experiment: ELISA, His-tagged Galectin-10 coated at 500 ng/mL, 225# diluted 1:200, anti-GST mouse antibody and HRP goat anti-mouse, repeat 3.
The target is the same in assay [23]. In words: ELISA, His-tagged Galectin-10 coated at 2500 ng/mL, 225# diluted 1:200, anti-GST mouse antibody and HRP goat anti-mouse, repeat 1.
For assay [24] the target is unchanged. As to the kind of experiment: ELISA, His-tagged Galectin-10 coated at 2500 ng/mL, 225# diluted 1:200, anti-GST mouse antibody and HRP goat anti-mouse, repeat 2.
For assay [25] the target is unchanged. As to the kind of experiment: ELISA, His-tagged Galectin-10 coated at 2500 ng/mL, 225# diluted 1:200, anti-GST mouse antibody and HRP goat anti-mouse, repeat 3.

B1: 254# nano antibody (SEQ ID NO: 3) (VHH, not shown: a dimerising Fc or GST; small tags and cut ends)
VHH: EVQLQASGGGFVQPGGSLRLSCAASGFTFSSFAMGWFRQAPGKEREFVSAISSGGGNTYYADSVKGRFTISRDNSKNTVYLQMNSLRAEDTATYYCVTPGGRLWYYRYDYRCQGTQVTVSS
B1: the minimum test concentration in [1] turned out to be 125 ng/mL. Also, the OD at 450 nm in assay [2] was determined as 0.373 OD450; in assay [3], 0.581 OD450; in assay [4], 0.397 OD450; in assay [5], 0.353 OD450; in assay [6], 0.37 OD450; in assay [7], 1.28 OD450. For the same molecule, the OD at 450 nm turned out to be 0.615 OD450 in assay [8]; 0.551 OD450 in assay [9]; 0.577 OD450 in assay [10]; 1.32 OD450 in assay [11]; 1.2 OD450 in [12]; 1.34 OD450 in assay [13].

B2: 225# nano antibody (SEQ ID NO: 4) (VHH, not shown: a dimerising Fc or GST; small tags and cut ends)
VHH: B1 VHH with F32Y, F47L
In assay [1], B2 showed a minimum test concentration of 125 ng/mL. Besides, the OD at 450 nm in assay [14] was 0.16 OD450; in assay [15], 0.265 OD450; in assay [16] it was 0.155 OD450; in assay [17], 0.153 OD450; in assay [18] it was 0.173 OD450; in assay [19], 0.707 OD450. In addition, the OD at 450 nm in assay [20] was 0.257 OD450; in assay [21], 0.26 OD450; in [22] it was 0.279 OD450; in assay [23], 0.74 OD450; in assay [24], 0.7 OD450; in [25], 0.681 OD450.
